B1: PSD2 (parent)
chain: PLMGETQERERVLTHFSRRYCQCN

Variants of: B1
Assay: protein stability index of a GFP-peptide fusion (GPS, HEK-293T) (PSI 1-6); higher = more stable
Conditions: c terminus: a fixed tail appended
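Note: lentivirally expressed fusions sorted by FACS into six bins by GFP to DsRed ratio, PSI derived from sequencing read proportions per bin multiplied by bin number.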

Variant | protein stability index
PLMGETQIRERVLTHFSRRYCQCN [E8I] | 2.69
PLMGETQKRERVLTHFSRRYCQCN [E8K] | 2.12
PLMGETQLRERVLTHFSRRYCQCN [E8L] | 1.89
PLMGETQMRERVLTHFSRRYCQCN [E8M] | 1.62
PLMGETQNRERVLTHFSRRYCQCN [E8N] | 2.46
PLMGETQPRERVLTHFSRRYCQCN [E8P] | 2.27
PLMGETQQRERVLTHFSRRYCQCN [E8Q] | 3.54
PLMGETQRRERVLTHFSRRYCQCN [E8R] | 2.78
PLMGETQSRERVLTHFSRRYCQCN [E8S] | 2.39
PLMGETQVRERVLTHFSRRYCQCN [E8V] | 1.71
PLMGETQWRERVLTHFSRRYCQCN [E8W] | 1.65
PLMGETQYRERVLTHFSRRYCQCN [E8Y] | 1.79
PLMGETQEAERVLTHFSRRYCQCN [R9A] | 3.5
PLMGETQECERVLTHFSRRYCQCN [R9C] | 2.68
PLMGETQEDERVLTHFSRRYCQCN [R9D] | 3.79
PLMGETQEEERVLTHFSRRYCQCN [R9E] | 4.05
PLMGETQEFERVLTHFSRRYCQCN [R9F] | 2.23
PLMGETQEGERVLTHFSRRYCQCN [R9G] | 2.98
PLMGETQEHERVLTHFSRRYCQCN [R9H] | 3.23
PLMGETQEIERVLTHFSRRYCQCN [R9I] | 2.07
PLMGETQEKERVLTHFSRRYCQCN [R9K] | 3.21
PLMGETQELERVLTHFSRRYCQCN [R9L] | 2.41
PLMGETQEMERVLTHFSRRYCQCN [R9M] | 2.16
PLMGETQENERVLTHFSRRYCQCN [R9N] | 4.17

Variant | protein stability index
PLMGETQEPERVLTHFSRRYCQCN [R9P] | 3.29
PLMGETQEQERVLTHFSRRYCQCN [R9Q] | 2.18
PLMGETQESERVLTHFSRRYCQCN [R9S] | 2.49
PLMGETQETERVLTHFSRRYCQCN [R9T] | 2.58
PLMGETQEVERVLTHFSRRYCQCN [R9V] | 2.94
PLMGETQEWERVLTHFSRRYCQCN [R9W] | 1.46
PLMGETQEYERVLTHFSRRYCQCN [R9Y] | 2.14
PLMGETQERARVLTHFSRRYCQCN [E10A] | 2.07
PLMGETQERCRVLTHFSRRYCQCN [E10C] | 2.92
PLMGETQERDRVLTHFSRRYCQCN [E10D] | 2.44
PLMGETQERFRVLTHFSRRYCQCN [E10F] | 2.19
PLMGETQERHRVLTHFSRRYCQCN [E10H] | 2.23
PLMGETQERIRVLTHFSRRYCQCN [E10I] | 2.1
PLMGETQERKRVLTHFSRRYCQCN [E10K] | 2.58
PLMGETQERLRVLTHFSRRYCQCN [E10L] | 2.27
PLMGETQERMRVLTHFSRRYCQCN [E10M] | 1.93
PLMGETQERNRVLTHFSRRYCQCN [E10N] | 2.8
PLMGETQERPRVLTHFSRRYCQCN [E10P] | 2.03
PLMGETQERQRVLTHFSRRYCQCN [E10Q] | 2.33
PLMGETQERRRVLTHFSRRYCQCN [E10R] | 1.82
PLMGETQERSRVLTHFSRRYCQCN [E10S] | 2.14
PLMGETQERTRVLTHFSRRYCQCN [E10T] | 2.07
PLMGETQERVRVLTHFSRRYCQCN [E10V] | 2.31
PLMGETQERWRVLTHFSRRYCQCN [E10W] | 1.87

Variant | protein stability index
PLMGETQERYRVLTHFSRRYCQCN [E10Y] | 1.73
PLMGETQEREAVLTHFSRRYCQCN [R11A] | 3.42
PLMGETQERECVLTHFSRRYCQCN [R11C] | 3.88
PLMGETQEREEVLTHFSRRYCQCN [R11E] | 3.98
PLMGETQEREFVLTHFSRRYCQCN [R11F] | 1.85
PLMGETQEREHVLTHFSRRYCQCN [R11H] | 3.73
PLMGETQEREIVLTHFSRRYCQCN [R11I] | 2.35
PLMGETQEREKVLTHFSRRYCQCN [R11K] | 2.87
PLMGETQERELVLTHFSRRYCQCN [R11L] | 3.11
PLMGETQEREMVLTHFSRRYCQCN [R11M] | 2.64
PLMGETQERENVLTHFSRRYCQCN [R11N] | 3.14
PLMGETQEREPVLTHFSRRYCQCN [R11P] | 3.02
PLMGETQEREQVLTHFSRRYCQCN [R11Q] | 3.46
PLMGETQERESVLTHFSRRYCQCN [R11S] | 2.53
PLMGETQERETVLTHFSRRYCQCN [R11T] | 3.06
PLMGETQEREVVLTHFSRRYCQCN [R11V] | 3.46
PLMGETQEREWVLTHFSRRYCQCN [R11W] | 2.19
PLMGETQERERALTHFSRRYCQCN [V12A] | 3.49
PLMGETQERERCLTHFSRRYCQCN [V12C] | 4.07
PLMGETQERERDLTHFSRRYCQCN [V12D] | 2.81
PLMGETQERERELTHFSRRYCQCN [V12E] | 3.34
PLMGETQERERFLTHFSRRYCQCN [V12F] | 3.5
PLMGETQERERGLTHFSRRYCQCN [V12G] | 3.1
PLMGETQERERHLTHFSRRYCQCN [V12H] | 3.24

Variant | protein stability index
PLMGETQERERILTHFSRRYCQCN [V12I] | 3.05
PLMGETQERERKLTHFSRRYCQCN [V12K] | 2.96
PLMGETQERERMLTHFSRRYCQCN [V12M] | 2.85
PLMGETQERERNLTHFSRRYCQCN [V12N] | 2.99
PLMGETQERERPLTHFSRRYCQCN [V12P] | 2.94
PLMGETQERERQLTHFSRRYCQCN [V12Q] | 3.6
PLMGETQERERRLTHFSRRYCQCN [V12R] | 3.15
PLMGETQERERSLTHFSRRYCQCN [V12S] | 3.03
PLMGETQERERTLTHFSRRYCQCN [V12T] | 3.73
PLMGETQERERWLTHFSRRYCQCN [V12W] | 3.26
PLMGETQERERYLTHFSRRYCQCN [V12Y] | 3.25
PLMGETQERERVATHFSRRYCQCN [L13A] | 2.71
PLMGETQERERVCTHFSRRYCQCN [L13C] | 4.49
PLMGETQERERVDTHFSRRYCQCN [L13D] | 3.18
PLMGETQERERVETHFSRRYCQCN [L13E] | 3.6
PLMGETQERERVFTHFSRRYCQCN [L13F] | 2.51
PLMGETQERERVGTHFSRRYCQCN [L13G] | 3.52
PLMGETQERERVHTHFSRRYCQCN [L13H] | 3.6
PLMGETQERERVITHFSRRYCQCN [L13I] | 3.55
PLMGETQERERVKTHFSRRYCQCN [L13K] | 3.57
PLMGETQERERVMTHFSRRYCQCN [L13M] | 3.3
PLMGETQERERVNTHFSRRYCQCN [L13N] | 2.93

Source: the supplement of paper PMC10567573
